How the values were obtained:
HeLa Kyoto [1] = test: melting temperature (median over replicates), in situ; higher = more thermally stable
HeLa Kyoto [2] = test: thermal stability score vs G1/S (z-score of summed log2 fold changes over temperatures); higher = more thermally stable than in G1/S
[3] = cell cycle stage: early G1 (4.5 h after nocodazole release)
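For melting temperature (median over replicates), in situ in this document: HeLa Kyoto cells synchronized by double thymidine or nocodazole block, proteins quantified by TMT10plex mass spectrometry, three independent biological replicates.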
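For thermal stability score vs G1/S (z-score of summed log2 fold changes over temperatures) in this document: synchronized HeLa Kyoto cells, proteins quantified by TMT10plex mass spectrometry, three biological replicates, mitosis taken 0.5 h after nocodazole release, G1/S directly after double thymidine block.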

Substance | melting temperature (HeLa Kyoto [1]; cell cycle stage: G1/S) | thermal stability score (HeLa Kyoto [2]; [3]) | thermal stability score (HeLa Kyoto [2]; cell cycle stage: mitosis) | melting temperature (HeLa Kyoto [1]; cell cycle stage: mitosis)
MAAPAGGGGSAVSVLAPNGRRHTVKVTPSTVLLQVLEDTCRRQDFNPCEYDLKFQRSVLDLSLQWRFANLPNNAKLEMVPASRSREGPENMVRIALQLDDGSRLQDSFCSGQTLWELLSHFPQIRECLQHPGGATPVCVYTRDEVTGEAALRGTTLQSLGLTGGSATIRFVMKCYDPVGKTPGSLGSSASAGQAAASAPLPLESGELSRGDLSRPEDADTSGPCCEHTQEKQSTRAPAAAPFVPFSGGGQRLGGPPGPTRPLTSSSAKLPKSLSSPGGPSKPKKSKSGQDPQQEQEQERERDPQQEQERERPVDREPVDREPVVCHPDLEERLQAWPAELPDEFFELTVDDVRRRLAQLKSERKRLEEAPLVTKAFREAQIKEKLERYPKVALRVLFPDRYVLQGFFRPSETVGDLRDFVRSHLGNPELSFYLFITPPKTVLDDHTQTLFQANLFPAALVHLGAEEPAGVYLEPGLLEHAISPSAADVLVARYMSRAAGSPSPLPAPDPAPKSEPAAEEGALVPPEPIPGTAQPVKRSLGKVPKWLKLPASKR [ASPSCR1] | 52.2 °C | -0.292 | -0.934 | 
MAAVVAKREGPPFISEAAVRGNAAVLDYCRTSVSALSGATAGILGLTGLYGFIFYLLASVLLSLLLILKAGRRWNKYFKSRRPLFTGGLIGGLFTYVLFWTFLYGMVHVY [EMC6] | 54.6 °C | 1.03 | -0.846 | 54.1 °C
MALRELKVCLLGDTGVGKSSIVWRFVEDSFDPNINPTIGASFMTKTVQYQNELHKFLIWDTAGQERFRALAPMYYRGSAAAIIVYDITKEETFSTLKNWVKELRQHGPPNIVVAIAGNKCDLIDVREVMERDAKDYADSIHAIFVETSAKNAININELFIEISRRIPSTDANLPSGGKGFKLRRQPSEPKRSCC [RAB22A] | 54.8 °C | 1.25 | 0.617 | 53.7 °C
MGNPENIEDAYVAVIRPKNTASLNSREYRAKSYEILLHEVPIEGQKKKRKKVLLETKLQGNSEITQGILDYVVETTKPISPANQGIRGKRVVLMKKFPLDGEKMGREASLFIVPSVVKDNTKYTYTPGCPIFYCLQDIMRVCSESSTHFATLTARMLIALDKWLDERHAQSHFIPALFRPSPLERIKTNVINPAYATESGQTENSLHMGYSALEIKSKMLALEKADTCIYNPLFGSDLQYTNRVDKVVINPYFGLGAPDYSKIQIPKQEKWQRSMSSVTEDKERQWVDDFPLHRSACEGDSELLSRLLSERFSVNQLDSDHWAPIHYACWYGKVEATRILLEKGKCNPNLLNGQLSSPLHFAAGGGHAEIVQILLNHPETDRHITDQQGRSPLNICEENKQNNWEEAAKLLKEAINKPYEKVRIYRMDGSYRSVELKHGNNTTVQQIMEGMRLSQETQQYFTIWICSENLSLQLKPYHKPLQHVRDWPEILAELTNLDPQRETPQLFLRRDVRLPLEVEKQIEDPLAILILFDEARYNLLKGFYTAPDAKLITLASLLLQIVYGNYESKKHKQGFLNEENLKSIVPVTKLKSKAPHWTNRILHEYKNLSTSEGVSKEMHHLQRMFLQNCWEIPTYGAAFFTGQIFTKASPSNHKVIPVYVGVNIKGLHLLNMETKALLISLKYGCFMWQLGDTDTCFQIHSMENKMSFIVHTKQAGLVVKLLMKLNGQLMPTERNS [KRIT1] |  | -0.252 | 0.0145 | 
MGQCGITSSKTVLVFLNLIFWGAAGILCYVGAYVFITYDDYDHFFEDVYTLIPAVVIIAVGALLFIIGLIGCCATIRESRCGLATFVIILLLVFVTEVVVVVLGYVYRAKVENEVDRSIQKVYKTYNGTNPDAASRAIDYVQRQLHCCGIHNYSDWENTDWFKETKNQSVPLSCCRETASNCNGSLAHPSDLYAEGCEALVVKKLQEIMMHVIWAALAFAAIQLLGMLCACIVLCRRSRDPAYELLITGGTYA [TSPAN3] |  | -0.556 | -0.785 | 
MKAIIHLTLLALLSVNTATNQGNSADAVTTTETATSGPTVAAADTTETNFPETASTTANTPSFPTATSPAPPIISTHSSSTIPTPAPPIISTHSSSTIPIPTAADSESTTNVNSLATSDIITASSPNDGLITMVPSETQSNNEMSPTTEDNQSSGPPTGTALLETSTLNSTGPSNPCQDDPCADNSLCVKLHNTSFCLCLEGYYYNSSTCKKGKVFPGKISVTVSETFDPEEKHSMAYQDLHSEITSLFKDVFGTSVYGQTVILTVSTSLSPRSEMRADDKFVNVTIVTILAETTSDNEKTVTEKINKAIRSSSSNFLNYDLTLRCDYYGCNQTADDCLNGLACDCKSDLQRPNPQSPFCVASSLKCPDACNAQHKQCLIKKSGGAPECACVPGYQEDANGNCQKCAFGYSGLDCKDKFQLILTIVGTIAGIVILSMIIALIVTARSNNKTKHIEEENLIDEDFQNLKLRSTGFTNLGAEGSVFPKVRITASRDSQMQNPYSRHSSMPRPDY [MUC13] |  | -3.46 | -1.12 | 
MKLPIFIADAFTARAFRGNPAAVCLLENELDEDMHQKIAREMNLSETAFIRKLHPTDNFAQSSCFGLRWFTPASEVPLCGHATLASAAVLFHKIKNMNSTLTFVTLSGELRARRAEDGIVLDLPLYPAHPQDFHEVEDLIKTAIGNTLVQDICYSPDTQKLLVRLSDVYNRSFLENLKVNTENLLQVENTGKVKGLILTLKGEPGGQTQAFDFYSRYFAPWVGVAEDPVTGSAHAVLSSYWSQHLGKKEMHAFQCSHRGGELGISLRPDGRVDIRGGAAVVLEGTLTA [PBLD] |  | -0.159 | 0.989 | 
MKLVFLVLLFLGALGLCLAGRRRSVQWCAVSQPEATKCFQWQRNMRKVRGPPVSCIKRDSPIQCIQAIAENRADAVTLDGGFIYEAGLAPYKLRPVAAEVYGTERQPRTHYYAVAVVKKGGSFQLNELQGLKSCHTGLRRTAGWNVPIGTLRPFLNWTGPPEPIEAAVARFFSASCVPGADKGQFPNLCRLCAGTGENKCAFSSQEPYFSYSGAFKCLRDGAGDVAFIRESTVFEDLSDEAERDEYELLCPDNTRKPVDKFKDCHLARVPSHAVVARSVNGKEDAIWNLLRQAQEKFGKDKSPKFQLFGSPSGQKDLLFKDSAIGFSRVPPRIDSGLYLGSGYFTAIQNLRKSEEEVAARRARVVWCAVGEQELRKCNQWSGLSEGSVTCSSASTTEDCIALVLKGEADAMSLDGGYVYTAGKCGLVPVLAENYKSQQSSDPDPNCVDRPVEGYLAVAVVRRSDTSLTWNSVKGKKSCHTAVDRTAGWNIPMGLLFNQTGSCKFDEYFSQSCAPGSDPRSNLCALCIGDEQGENKCVPNSNERYYGYTGAFRCLAENAGDVAFVKDVTVLQNTDGNNNEAWAKDLKLADFALLCLDGKRKPVTEARSCHLAMAPNHAVVSRMDKVERLKQVLLHQQAKFGRNGSDCPDKFCLFQSETKNLLFNDNTECLARLHGKTTYEKYLGPQYVAGITNLKKCSTSPLLEACEFLRK [LTF] |  | -3.21 | -1.19 | 
MNPGFDLSRRNPQEDFELIQRIGSGTYGDVYKARNVNTGELAAIKVIKLEPGEDFAVVQQEIIMMKDCKHPNIVAYFGSYLRRDKLWICMEFCGGGSLQDIYHVTGPLSELQIAYVSRETLQGLYYLHSKGKMHRDIKGANILLTDNGHVKLADFGVSAQITATIAKRKSFIGTPYWMAPEVAAVERKGGYNQLCDLWAVGITAIELAELQPPMFDLHPMRALFLMTKSNFQPPKLKDKMKWSNSFHHFVKMALTKNPKKRPTAEKLLQHPFVTQHLTRSLAIELLDKVNNPDHSTYHDFDDDDPEPLVAVPHRIHSTSRNVREEKTRSEITFGQVKFDPPLRKETEPHHELPDSDGFLDSSEEIYYTARSNLDLQLEYGQGHQGGYFLGANKSLLKSVEEELHQRGHVAHLEDDEGDDDESKHSTLKAKIPPPLPPKPKSIFIPQEMHSTEDENQGTIKRCPMSGSPAKPSQVPPRPPPPRLPPHKPVALGNGMSSFQLNGERDGSLCQQQNEHRGTNLSRKEKKDVPKPISNGLPPTPKVHMGACFSKVFNGCPLKIHCASSWINPDTRDQYLIFGAEEGIYTLNLNELHETSMEQLFPRRCTWLYVMNNCLLSISGKASQLYSHNLPGLFDYARQMQKLPVAIPAHKLPDRILPRKFSVSAKIPETKWCQKCCVVRNPYTGHKYLCGALQTSIVLLEWVEPMQKFMLIKHIDFPIPCPLRMFEMLVVPEQEYPLVCVGVSRGRDFNQVVRFETVNPNSTSSWFTESDTPQTNVTHVTQLERDTILVCLDCCIKIVNLQGRLKSSRKLSSELTFDFQIESIVCLQDSVLAFWKHGMQGRSFRSNEVTQEISDSTRIFRLLGSDRVVVLESRPTDNPTANSNLYILAGHENSY [MAP4K3] |  | 0.473 | 0.693 | 
MNRESFAAGERLVSPAYVRQGCEARRSHEHLIRLLLEKGKCPENGWDESTLELFLHELAIMDSNNFLGNCGVGEREGRVASALVARRHYRFIHGIGRSGDISAVQPKAAGSSLLNKITNSLVLDIIKLAGVHTVANCFVVPMATGMSLTLCFLTLRHKRPKAKYIIWPRIDQKSCFKSMITAGFEPVVIENVLEGDELRTDLKAVEAKVQELGPDCILCIHSTTSCFAPRVPDRLEELAVICANYDIPHIVNNAYGVQSSKCMHLIQQGARVGRIDAFVQSLDKNFMVPVGGAIIAGFNDSFIQEISKMYPGRASASPSLDVLITLLSLGSNGYKKLLKERKEMFSYLSNQIKKLSEAYNERLLHTPHNPISLAMTLKTLDEHRDKAVTQLGSMLFTRQVSGARVVPLGSMQTVSGYTFRGFMSHTNNYPCAYLNAASAIGMKMQDVDLFIKRLDRCLKAVRKERSKESDDNYDKTEDVDIEEMALKLDNVLLDTYQDASS [SEPSECS] |  | -1.52 | -1.62 | 
MNSMNPMKPALPPAPHGDGSFAYESVPWQQSATQPAGSLSVVTTVWGVGNATQSQVLGNPMGPAGSPSGSSMMPGVAGGSSALTSPQCLGQQAFAEGGANKGYVQQGVYSRGGYPGAPGFTTGYAGGPGGLGLPSHAARPSTDFTQAAAAAAVAAAAATATATATATVAALQEKQSQELSQYGAMGAGQSFNSQFLQHGGPRGPSVPAGMNPTGIGGVMGPSGLSPLAMNPTRAAGMTPLYAGQRLPQHGYPGPPQAQPLPRQGVKRTYSEVYPGQQYLQGGQYAPSTAQFAPSPGQPPAPSPSYPGHRLPLQQGMTQSLSVPGPTGLHYKPTEQFNGQGASFNGGSVSYSQPGLSGPTRSIPGYPSSPLPGNPTPPMTPSSSVPYMSPNQEVKSPFLPDLKPNLNSLHSSPSGSGPCDELRLTFPVRDGVVLEPFRLQHNLAVSNHVFQLRDSVYKTLIMRPDLELQFKCYHHEDRQMNTNWPASVQVSVNATPLTIERGDNKTSHKPLYLKHVCQPGRNTIQITVTACCCSHLFVLQLVHRPSVRSVLQGLLKKRLLPAEHCITKIKRNFSSGTIPGTPGPNGEDGVEQTAIKVSLKCPITFRRIQLPARGHDCRHIQCFDLESYLQLNCERGTWRCPVCNKTALLEGLEVDQYMLGILIYIQNSDYEEITIDPTCSWKPVPVKPDMHIKEEPDGPALKRCRTVSPAHVLMPSVMEMIAALGPGAAPFAPLQPPSVPAPSDYPGQGSSFLGPGTFPESFPPTTPSTPTLAEFTPGPPPISYQSDIPSSLLTSEKSTACLPSQMAPAGHLDPTHNPGTPGLHTSNLGAPPGPQLHHSNPPPASRQSLGQASLGPTGELAFSPATGVMGPPSMSGAGEAPEPALDLLPELTNPDELLSYLGPPDLPTNNNDDLLSLFENN [ZMIZ2] |  | 0.174 | 0.237 | 
MSVPGPYQAATGPSSAPSAPPSYEETVAVNSYYPTPPAPMPGPTTGLVTGPDGKGMNPPSYYTQPAPIPNNNPITVQTVYVQHPITFLDRPIQMCCPSCNKMIVSQLSYNAGALTWLSCGSLCLLGCIAGCCFIPFCVDALQDVDHYCPNCRALLGTYKRL [LITAF] |  | -0.592 | -0.943 | 
MVRFKHRYLLCELVSDDPRCRLSLDDRVLSSLVRDTIARVHGTFGAAACSIGFAVRYLNAYTGIVLLRCRKEFYQLVWSALPFITYLENKGHRYPCFFNTLHVGGTIRTCQKFLIQYNRRQLLILLQNCTDEGEREAIQKSVTRSCLLEEEEESGEEAAEAME [POP5] |  | -0.00794 | -2.6 | 
TTC3 |  | 0.321 | -0.39 | 

From the supplement of paper PMC5998384
